{
  "source": "patent US20110263436A1",
  "key": {"[1]": {"molecular_target": "HCV NS3 fragment 1190-1216 (…) (Hepatitis C virus)", "assay": "flow cytometry titration on yeast displaying the NS3 1190-1216 fragment"}, "[2]": {"molecular_target": "HCV NS4 fragment 1692-1713 (…) (Hepatitis C virus)", "assay": "flow cytometry titration on yeast displaying the NS4 1692-1713 fragment"}, "[3]": {"molecular_target": "wildtype HCV core 27-39 fragment (…) (Hepatitis C virus)", "assay": "flow cytometry titration on yeast displaying the core 27-39 fragment (apparent KD)"}},
  "data": [
    {"binder": "anti-HCV NS3 chimeric antibody (HCV NS3 CHO 17-903-132sc171) (antibody, V domains shown) VH: EVKLVESGGGLVQPGGSLKLSCATSGFTFSDYYMYWVRQTPEKRLEWAAYISNGAGSTYYPDTVKGRFTISRDNAKNTLYLQMSRLKSEDTAMYYCARGLWDGLDYWGQGTTLTVSS VL: DVVMAQTPLSLPVSLGDQASISCRSSQSLVHSNGNTYLHWYLQRPGQSPKLLIYKVSNRFSGVPDRFSGSGSGTDFTLKISRVEAEDLGVYFCSQSTHVPYTFGGGTKLEIKR", "values": [
      {"measurement": "Kd", "setting": "[1]", "result": 68, "unit": "nM"}
    ]},
    {"binder": "anti-HCV NS4 chimeric antibody (HCV NS4 CHO E99H6C34sc203) (antibody, V domains shown) VH: QIQLVQSGPELKKPGETVKISCKASGYTFTDYSMHWVNQAPGKGLKWMGWINTETGEPTYADDFKGRFAFSLETSASTAYLQINNLKNEDTATYFCTRGGTGYWGQGTTLTVSS VL: DVVMTQTPLSLPVSLGDQASISCRSSQSLVYSNGNTYLHWYLQKPGQSPKLLIYKVSNRFSGVPDRFSGSGSGTDFTLKISRVEAEDLGVYFCSQSTHVPWTFGGGTKLEIKR", "values": [
      {"measurement": "Kd", "setting": "[2]", "result": 0.5, "unit": "nM"}
    ]},
    {"binder": "anti-HCV core chimeric antibody (HCV core 201-603-486-333) (antibody, V domains shown) VH: QIQLVQSGPELQKPGKTVKISCKTSGYTFTDYPMHWVKQAPGKGLKWMGWINTETGEPTRVDDFKGRFAFSLETSASTAYLQINNLKDEDTATYFCARGGGVRRQVMDYWGQGTSVTVSS VL: DIVMSQSPSSLAVSAGEKVTMSCKSSQSLLNSRTRKNYLVWYQQKPGQSPKLLIYWASTRDSGVPDRFTGSGSGTDFTLTISSVQAEDLAVYYCKQSYNLYTFGGGTKLEIKR", "values": [
      {"measurement": "Kd", "setting": "[3]", "result": 0.7, "unit": "nM"}
    ]}
  ]
}
